Assay results taken from the RNAGym collection of RNA variant scans (doi:10.7554/elife.80360).

B1: CPEB3 Ribozyme (parent)
chain: GGGGGCCACAGCAGAAGCGUUCACGUCGCGGCCCCUGUCAGAUUCUGGUGAAUCUGCGAAUUCUGCUGU

Variants of: B1
Experiment: self-cleavage, relative activity (ratio to wild type); higher = more cleavage; co-transcriptional

Which self-cleavage does the source give for C18U G47A here?
Its self-cleavage is 0.975.

With C18U G47C as the variant, how does the self-cleavage read?
The self-cleavage was 0.911.

Which self-cleavage does the source give for C18U G47U here?
Its self-cleavage is 0.928.

With C18U G48C as the variant, how does the self-cleavage read?
The self-cleavage was 0.903.

For C18U G48U, which self-cleavage is on record?
Its self-cleavage is 0.934.

Which self-cleavage does the source give for C18U G50A here?
Its self-cleavage is 0.906.

For C18U G56A, which self-cleavage is on record?
The self-cleavage was 0.706.

Which self-cleavage does the source give for C18U G58A here?
Its self-cleavage is 0.801.

Which self-cleavage does the source give for C18U G58U here?
Its self-cleavage is 0.942.

For C18U G65A, which self-cleavage is on record?
Its self-cleavage is 0.332.

With C18U G65C as the variant, how does the self-cleavage read?
Its self-cleavage is 0.363.

With C18U G68A as the variant, how does the self-cleavage read?
Its self-cleavage is 0.948.

Which self-cleavage does the source give for C18U G68C here?
The self-cleavage was 0.924.

For C18U G68U, which self-cleavage is on record?
The self-cleavage was 0.943.

For C18U U20A, which self-cleavage is on record?
Its self-cleavage is 0.108.

For C18U U20C, which self-cleavage is on record?
The self-cleavage was 0.135.

With C18U U21A as the variant, how does the self-cleavage read?
Its self-cleavage is 0.807.

For C18U U21C, which self-cleavage is on record?
Its self-cleavage is 0.389.

For C18U U21G, which self-cleavage is on record?
Its self-cleavage is 0.276.

Which self-cleavage does the source give for C18U U26C here?
The self-cleavage was 0.732.

Which self-cleavage does the source give for C18U U26G here?
Its self-cleavage is 0.697.

Which self-cleavage does the source give for C18U U36A here?
Its self-cleavage is 0.109.

For C18U U36C, which self-cleavage is on record?
The self-cleavage was 0.562.

Which self-cleavage does the source give for C18U U38A here?
Its self-cleavage is 0.671.

Which self-cleavage does the source give for C18U U38C here?
The self-cleavage was 0.694.

With C18U U38G as the variant, how does the self-cleavage read?
The self-cleavage was 0.116.

For C18U U43C, which self-cleavage is on record?
Its self-cleavage is 0.768.

With C18U U43G as the variant, how does the self-cleavage read?
Its self-cleavage is 0.357.

With C18U U44A as the variant, how does the self-cleavage read?
The self-cleavage was 0.727.

With C18U U44C as the variant, how does the self-cleavage read?
The self-cleavage was 0.617.

With C18U U44G as the variant, how does the self-cleavage read?
The self-cleavage was 0.726.

For C18U U46A, which self-cleavage is on record?
Its self-cleavage is 0.964.

With C18U U46C as the variant, how does the self-cleavage read?
The self-cleavage was 0.808.

For C18U U46G, which self-cleavage is on record?
Its self-cleavage is 0.854.

With C18U U49G as the variant, how does the self-cleavage read?
The self-cleavage was 0.894.

Which self-cleavage does the source give for C18U U53C here?
The self-cleavage was 0.47.

With C18U U55A as the variant, how does the self-cleavage read?
The self-cleavage was 0.447.

For C18U U55C, which self-cleavage is on record?
Its self-cleavage is 0.446.

Which self-cleavage does the source give for C18U U61A here?
Its self-cleavage is 0.467.

Which self-cleavage does the source give for C18U U61C here?
The self-cleavage was 0.267.

For C18U U61G, which self-cleavage is on record?
The self-cleavage was 0.312.

With C18U U62A as the variant, how does the self-cleavage read?
The self-cleavage was 0.402.

With C18U U62C as the variant, how does the self-cleavage read?
Its self-cleavage is 0.572.

For C18U U64G, which self-cleavage is on record?
The self-cleavage was 0.43.

Which self-cleavage does the source give for C18U U67A here?
The self-cleavage was 0.862.

With C18U U67C as the variant, how does the self-cleavage read?
The self-cleavage was 0.802.

Which self-cleavage does the source give for C18U U69C here?
The self-cleavage was 1.04.

With C18U U69G as the variant, how does the self-cleavage read?
The self-cleavage was 1.

Which self-cleavage does the source give for G19A here?
Its self-cleavage is 0.167.

With G19A A23C as the variant, how does the self-cleavage read?
The self-cleavage was 0.25.

For G19A A23G, which self-cleavage is on record?
Its self-cleavage is 0.131.

With G19A A23U as the variant, how does the self-cleavage read?
Its self-cleavage is 0.154.

For G19A A40C, which self-cleavage is on record?
The self-cleavage was 0.123.

With G19A A40U as the variant, how does the self-cleavage read?
Its self-cleavage is 0.147.

Which self-cleavage does the source give for G19A A42U here?
Its self-cleavage is 0.191.

For G19A A51U, which self-cleavage is on record?
Its self-cleavage is 0.245.

With G19A A52C as the variant, how does the self-cleavage read?
Its self-cleavage is 0.183.

For G19A A52G, which self-cleavage is on record?
The self-cleavage was 0.204.

With G19A A52U as the variant, how does the self-cleavage read?
Its self-cleavage is 0.156.

For G19A A59C, which self-cleavage is on record?
Its self-cleavage is 0.194.

For G19A A59G, which self-cleavage is on record?
Its self-cleavage is 0.188.

With G19A A60C as the variant, how does the self-cleavage read?
The self-cleavage was 0.0899.

With G19A A60U as the variant, how does the self-cleavage read?
The self-cleavage was 0.0747.

With G19A C22G as the variant, how does the self-cleavage read?
The self-cleavage was 0.148.

Which self-cleavage does the source give for G19A C22U here?
The self-cleavage was 0.196.

With G19A C24A as the variant, how does the self-cleavage read?
Its self-cleavage is 0.124.

For G19A C24G, which self-cleavage is on record?
The self-cleavage was 0.159.

For G19A C24U, which self-cleavage is on record?
The self-cleavage was 0.16.

Which self-cleavage does the source give for G19A C27A here?
Its self-cleavage is 0.143.

For G19A C27G, which self-cleavage is on record?
The self-cleavage was 0.656.

For G19A C27U, which self-cleavage is on record?
Its self-cleavage is 0.768.

For G19A C29G, which self-cleavage is on record?
The self-cleavage was 0.153.

For G19A C29U, which self-cleavage is on record?
Its self-cleavage is 0.0995.

Which self-cleavage does the source give for G19A C32A here?
The self-cleavage was 0.174.

Which self-cleavage does the source give for G19A C33A here?
The self-cleavage was 0.126.

For G19A C33U, which self-cleavage is on record?
The self-cleavage was 0.13.

With G19A C34A as the variant, how does the self-cleavage read?
The self-cleavage was 0.201.

For G19A C34U, which self-cleavage is on record?
The self-cleavage was 0.181.

Which self-cleavage does the source give for G19A C35G here?
The self-cleavage was 0.183.

Which self-cleavage does the source give for G19A C39A here?
Its self-cleavage is 0.145.

With G19A C39U as the variant, how does the self-cleavage read?
The self-cleavage was 0.158.

With G19A C45G as the variant, how does the self-cleavage read?
The self-cleavage was 0.194.

For G19A C54A, which self-cleavage is on record?
Its self-cleavage is 0.163.
